{
  "source": "the nanobody polyreactivity screen of Harvey et al. (2022)",
  "data": [
    {"assay": "yeast display, Sf9 membrane polyspecificity reagent, FACS + sequencing; frameworks hold sequencing errors", "in_short": "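A synthetic nanobody library was expressed on Saccharomyces cerevisiae BJ5465 by galactose induction for 36–48 hours. The library was stained for 1 hour at 4 °C with 10% biotinylated, detergent-solubilized Sf9 membrane reagent and enriched with streptavidin microbeads before FACS. Low and high (top ~1%) gates were set on anti-HA fluorescence for expression and streptavidin fluorescence for reagent binding, and each polyreactivity label reflects the gate of origin.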", "values": [
      {"sequence": "QVQLVESGGGLVQAGGSLRLRCAASGLTFAYNTMGWYRQAPGKEREFVASISSSGGNTYYADSVKGRFTISRDNAKNTVYLQMNSLKPEDTAVYYCAAKKKYHYVASYKRFEYWGQGTQVTVSS", "polyreactivity (PSR sort gate)": "low polyreactivity"},
      {"sequence": "QVQLVESGGGLVQAGGSLRLSCAASGRIFTYYTMGWYRRAPGKEREFVAAISWSGTSTYYADSVKGRFTISRDNAKNTVYLQMNSLKPEETAVFNCAARNWYSRYDYWGQGTQVTVSS", "polyreactivity (PSR sort gate)": "high polyreactivity"},
      {"sequence": "QVQLVESGGGLVQAGGSLRLSCAASGRTFTGYAMGWYRQAPGKERELVAAISRRGASTYYADSVKGRFTISRDNAKNTVYLQMNSLKPEDTAVYYCAAYLYGLWSVGRDYWGQGTQVTVSS", "polyreactivity (PSR sort gate)": "high polyreactivity"},
      {"sequence": "QVQLVDSGGGIVQAGGSLRLSCAASGSTFGRKVMGWYRQAPGKERELVAAISFRGGSTYYADSVKGRFTISRDNAKNTVYLQMNSLKPEDTAVYYCARDYPTDAYDYWGQGTQVTVSS", "polyreactivity (PSR sort gate)": "low polyreactivity"},
      {"sequence": "QVQLVESGGCLVQAGGSLRLTCAASGRTFYRYAMGWSRQAPRKERELVAAITTSGGSTYYADSVKGRFTISRDNAMTTVFLQKNSLNPDDTEVYYCAATYYGYHIRDDYWGQGTQVTVSS", "polyreactivity (PSR sort gate)": "low polyreactivity"},
      {"sequence": "QVQLGESGGGLVQAGGSLRLSCAASGSIFEVYAMGWYRQAPGKERELVAAINYTGGSTYYADSVKGRFTISRDNAKNTVYLQMNSLKPEDTAVYYCARDTSGIGTRYDYWGQGTQVTLSS", "polyreactivity (PSR sort gate)": "low polyreactivity"},
      {"sequence": "QVQLVESVGCLVQAGGSLRLSCAASGRTVVYGYAMGWYRQDPGKERELVAAITSGGSTNYADSVKGRFTISRDNAKNTVYLQMNSLNPEDSAVYYCNAGTVLISTYDYWGQGTQVTVSS", "polyreactivity (PSR sort gate)": "high polyreactivity"},
      {"sequence": "QVQLVESGGGLVQAGGSLRLSCAASGITFDVYAMGWYRQAPGKERELVAAISSVGGTYYADSVKGRFTISRDNAKNTVYLQMNSLKPEDTAVYYCNTDGYVGSIRSGLYIYDYWGQGTQVTVSS", "polyreactivity (PSR sort gate)": "low polyreactivity"},
      {"sequence": "QVQLVESGGGLVQAGGSLRLSCAASGRTFRYYAMGWYRKAPGKERELVASIRGGGGTNYADSVKGRFTISRDNAKNTVYLQMNSLKPEDTAVYFCAASVGYSRVWLDYWGQGTQVTVSS", "polyreactivity (PSR sort gate)": "high polyreactivity"},
      {"sequence": "QVQLVESGGGLVQAGGSLRLSCAASGFTIIYNAMGWYSQAPGKERELVAAISSGGSTYYADSVKGRFTISRDNAKNTVYFQMNSLKPVDTAVYYCNADVGFFNSGYEDSDYWGQGTQVTVSS", "polyreactivity (PSR sort gate)": "low polyreactivity"},
      {"sequence": "QVQLVESGGGLVQAGGSLRLSCAASGRTFTVYAMGWYRQAPGKERELVAAIIYSGGRTYYADSVKGRFTISRDNAKNTVYLQMNSLKPEDTAVYYCAAYVYQSCPRFSRYGGYDYWGQGTQVTVSS", "polyreactivity (PSR sort gate)": "low polyreactivity"},
      {"sequence": "QVQLVESGGGLVQAGGSLRLSCAASGRSFYLYAMGWYRQAPGKERELVAGITSGGRTNYADSVKGRFTISRDNAKNTVYLQMNSLKPEDTAVYYCAAGSRRYKYDYWGQGTQVTVSS", "polyreactivity (PSR sort gate)": "high polyreactivity"},
      {"sequence": "QVQLEESGGGLVQAGGSLRLSCAASGSTFIVNAMGWYRQAPGKERELVATISGGDSTDYADSVKGRFTISRDNAKNTVYLQMKSLKPEDTAVYYCNAEVHQYYFTPYDYWGQGTQVTFSS", "polyreactivity (PSR sort gate)": "low polyreactivity"},
      {"sequence": "QVHLVESGGGLVQAGGSHRLSCAASGLNFPPNAMGWYRQAPAKESELVASITRSGGSTYYADSVKGRFTISRDNAKNTVYLQMNSLKRDDTAVYYCAAYLDTSRYGVLYDYWGQGTQVTVSS", "polyreactivity (PSR sort gate)": "low polyreactivity"},
      {"sequence": "QVQLVESGGGLVQAGGSLRLSCAASGSIFAFNAMGWYRQAPGKERELVAAMSGSGARTYYADSVKGRFTTSRDNAKNTVYLQLNSLKPEDTAVYYCARPYGYGYDYWGQGTQVTVSS", "polyreactivity (PSR sort gate)": "high polyreactivity"},
      {"sequence": "QVQLVESGGGLVQPGGSLRLSCAASGSTFLVYAMGWYRQAPGKERELVAVIDNGGDTYYADSVKGRFTISRDNAKNTVYLPMNSMKPEDTEVYYCAADLSYLGYCEYDYWGQGTQVNVSS", "polyreactivity (PSR sort gate)": "low polyreactivity"},
      {"sequence": "QVQLVESGGGLDQAGGSLRLTCAASGFNFSYYVMGWYRQAPGKERELVAAITKSGGSTYYADSVKGRFTIARDNAKNTVYLQMYSLKPEDTAVYFLAAVRGYRCYDYWGQGTQVTVSS", "polyreactivity (PSR sort gate)": "high polyreactivity"},
      {"sequence": "QVQIVESGGGLVHAGGSLRLSCAASGRNIPPYVIAWYRQAPGKEREMVAAMSWRGGNTYYADSVKGRFTISRDNAKNTVYLQMNSLKPEDTAVYYCAAKAYRRYSIPPYGYWGQGTQVTVSW", "polyreactivity (PSR sort gate)": "low polyreactivity"},
      {"sequence": "QVQLVESGGGLVQAGGSLRLSCAASGSTFVGNAMGWYRQAPGKERELVAAITGGGGSTYYADSVKGRFTISRDNAKNTVYLQMNSLKPEDTAVYYCNKKLQRRSWYDYWGQGTQVTVSS", "polyreactivity (PSR sort gate)": "low polyreactivity"},
      {"sequence": "QVQLVESGGGLVQAGGSLRLSCAASGRIIYRNAMGWSRQSPGKEREMVATITKNGGATYYADSVKGRFTISRDNAKNTVYLQMNTLKPEDTAVYYCATGSRGYKASPQWRDYWGQGTQVTVSS", "polyreactivity (PSR sort gate)": "high polyreactivity"},
      {"sequence": "QVQLQESGGGLVQAGGSLRLSCAAIGYISYFVGMGWYRQQPGKEREFVASIADVSNTYYADSVKGRFTISRDNAKNTVYLQRNSLKPEDTAVYYCAVVDSWTYRFDYWGQGTQVTVSS", "polyreactivity (PSR sort gate)": "high polyreactivity"},
      {"sequence": "QVQLVESVGGLVQAGGSLRLSCAASGSTFYFNDMGWYRQAPGKERELVAAISRGGSTYYADSVKGRFTISRDTAKNTVYLQMNSLKPEDTAVYYCANGSYVRNYGYWGQGTQVTVSS", "polyreactivity (PSR sort gate)": "high polyreactivity"},
      {"sequence": "QVQLVESGGGLVQAGGSLRLSCAASGFTISQYAMGWYRQAPGKERELVAVISINGGSTYYADSVKGRFTISRDNAKNTVYLEKNSLKPEDTAVYYCAADDTDSEDYGYDYWGQGTQVTVSS", "polyreactivity (PSR sort gate)": "low polyreactivity"},
      {"sequence": "QVQLVESGGGLVQAGGSLRLSCAASGSTFPLNAMGWYRQAPGKESEFLDAISYRGSSTYYADSVKGRFTISRDNAKNTVYLQMNSLKPEDTAVYYCSANPNTYYYRRGYDYWGQGTQVTVSS", "polyreactivity (PSR sort gate)": "high polyreactivity"},
      {"sequence": "QVQLVESRGGLVQAGGSLRLSCAASGITFDVYDMGWYRQAPGKERELVASINSGGGITYYADSVKGRFTISRDNAKNTVYLQMNSLKPEDTAVFYCADDTWGSSWYDLFRETSDYWGQVTQVTVSS", "polyreactivity (PSR sort gate)": "low polyreactivity"},
      {"sequence": "QVQLVESGGGLVQAGGSLRLSCAASGRIFKVYAMGWYRQAPGKERELVATISRGGSTYYADSVKGRFTISRDNAKNTVYLQMNSLKPEDTAVYYCATQRERYYWFGAWSYDYWGQGTQVTVSS", "polyreactivity (PSR sort gate)": "low polyreactivity"},
      {"sequence": "QVQLVESGGGLVQAGGSLRLSCAASGRTFVYNAMGWYRQAPGKERELVAAINWRGGSTYYADSVKGRFTISRDNAKNTVSLQMNSLKPEDTAVYYCAPRNVYVWYDYWGQGTQVTVSS", "polyreactivity (PSR sort gate)": "low polyreactivity"},
      {"sequence": "QVQLVESGGGLVQAGGSLRLSSAASGRIFRINAMGWYRQAPGKERELVADITSGGSTNYADSVKGRFTISRDNAKNTVYLQMNSLKPEDTAVYYCAAAYVTYRTRLDYWGQGTQVTVSS", "polyreactivity (PSR sort gate)": "low polyreactivity"},
      {"sequence": "QVQLVESGGGLVQAGGSLRLSCAASGNIISTYAMGWYRQAPGKERELVAAITSSSARTYYADSVKGRFTISRDNAKNTVYLQLNSLKPEDTAVYYCATRTGIRQDLVHLYRVYYWGQGTQVTVSS", "polyreactivity (PSR sort gate)": "high polyreactivity"},
      {"sequence": "QVQLVESGGGLVQAGGSLRLSCAASGRIFDRYALGWYRQAPGTERELVAVISQSGGRTYYADSVKGRFTISRDNAKNTVYLEMNSLKPEDSAVYYCNKRYRNRYSYSEGDYWGQGTQVTVSS", "polyreactivity (PSR sort gate)": "high polyreactivity"},
      {"sequence": "QVQLVESGGGLDHAGGSLRLSCAASGITFKRYAMGWYRQAPGKERELVAAISDIGGRTYYADSVKGRFTISRDNAKNTVYLQMNSLKPEDTAVYYCAADYYSPVDWYYYWGQGTQVTVSS", "polyreactivity (PSR sort gate)": "high polyreactivity"},
      {"sequence": "QVQLVESGGGLVQAGGSLRLSCAASGRIFSVYAMGWYRQAPGKERELVAAITNGGRTNYADSVKGRFTISRDNAKNTVYLQMNSLKPEDTAVYYCATDPVKSGYQRYYYWGQGTQVTVSS", "polyreactivity (PSR sort gate)": "low polyreactivity"},
      {"sequence": "QVQHVESGGGLLQAGGSLRLSSAATGSTNAMGWYRQAHGKERELVAAISRRGGSTYYADSVKGRFTISRDNAKKTVYLQMFSLKPEDTAVYYCAAPYSTFSYVYWGQGTQLTVSS", "polyreactivity (PSR sort gate)": "high polyreactivity"},
      {"sequence": "QVQLVESGGGLVQAGGSLRLSCDASGRIFGYYTMGWYRQAPGKERELVAAISNSGVSTYYADSVKGRFTISRDNAKNTVYLQMNSLKPEDTAVYYCNARLYSYYKFNYWGQGTQVTVSS", "polyreactivity (PSR sort gate)": "high polyreactivity"},
      {"sequence": "QVQLVESGGGLVQAGGSLRLSCAASGLTFGSYTMGWYRQAPGRERDLVAAITSDGSTNYADSVKGRFTISRDNAKNTVYLQMNSLKPEDTAVYYCNKGETLYGSVPYDYWGQGTQVTVSS", "polyreactivity (PSR sort gate)": "high polyreactivity"},
      {"sequence": "QVQLVESGGGLVQAGGSLRLSCAASGRTFALNAMGWYRQAPGKERELVAAISWSSGRTYYADSVKGRFTISRDNAKNKVYLQMNSLKPEDTAVYYCAALVAHKGDYWGQGTQVTVSS", "polyreactivity (PSR sort gate)": "high polyreactivity"},
      {"sequence": "QVQLVESGGGLVQAGGSLRLSCAASGSTFYIYAMGWYRQAPGKERELVAAITWRGGGTYYADSVKGRFTISRDNAKNTVYLEMNSLKPEDTAVYYCNADYPRSRGVKYDYWGQGTQVTVSS", "polyreactivity (PSR sort gate)": "high polyreactivity"},
      {"sequence": "QVQLVESGGGLVQAGGSLRLSCAASGSTFLRYVMGWYRQAPGKERELVAAISRRGGSTYYADSVKGRFTISRDNAKNTVYLQMNSLNPEDTAGYYCARTVGYRTLLESDSCGQGTQVTVSS", "polyreactivity (PSR sort gate)": "high polyreactivity"},
      {"sequence": "QVQLVESGGGLVQAGGSLRISCAPSGRIFNINEMGWYRPARGKEREWVARITTGGRTNYADSVKGRFTISRDNAKNTFYLQMNSLKPADTAVYYCAARTYGQLGDYWGQGTQVTVSS", "polyreactivity (PSR sort gate)": "high polyreactivity"},
      {"sequence": "QVQLEESGVGLVQAGGSLRLICAASGITLFHYVMGWYRQAPGKERELVAVISSSGGSTYYADSVKGRFTISRDNAKNTVYLQMNSLKPEDTAVYYCAAETDSRKARVLYDCWGQGTQVTVSS", "polyreactivity (PSR sort gate)": "high polyreactivity"},
      {"sequence": "QVQLVESGGGLVQAGGSLRLSCAASGITLGYYAMGWYRQAPGKERELVAAISYRGGNTYYADSVKGRFTISRDNAKNTVYLQRNSLKPEDTAVYYCNADLGYESGWWSKYDYWGQGTQVTVSS", "polyreactivity (PSR sort gate)": "low polyreactivity"}
    ]}
  ]
}
